Usually pKd stands for the Kd on a negative log10 scale, so that one unit is a factor of ten.

Among the data in publication PMC9482650, “Quantitative fragmentomics allow affinity mapping of interactomes” (Nature Communications, 2022) are pKd values, retold here.

Some targets named below: GRIP2_7, Q9C0E4; MAGI2_2, Q86UL8; DLG4_2, P78352; FRMPD3, Q5JV73; GRASP, Q7Z6J2; LDB3, O75112; DLG1_2, Q12959; SCRIB_1, Q14160; PDLIM1, O00151; PARD3_3, Q8TEW0.
Holding throughout (assay): holdup assay
Set-up in all cases: key: below the threshold = too weak to quantify, mostly under pKd 3.1 to 4
What all share (conditions): plain residues with an end cap or a label only (N-terminal biotin on a linker: ado-ado)

Another experiment has as its target T1, DFNB31_1, Q9P202.
T1 sequence (Q9P202 135-233, limits assumed, looked up): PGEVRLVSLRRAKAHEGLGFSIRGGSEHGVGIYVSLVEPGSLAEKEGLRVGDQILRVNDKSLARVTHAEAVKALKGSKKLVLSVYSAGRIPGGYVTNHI

The target in a further experiment is T2, DFNB31_2, Q9P202.
T2 sequence (Q9P202 274-371, limits assumed, looked up): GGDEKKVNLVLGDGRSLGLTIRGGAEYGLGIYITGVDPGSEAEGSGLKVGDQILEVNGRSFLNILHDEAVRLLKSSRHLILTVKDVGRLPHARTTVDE

The target in another experiment is T3, HTRA3, P83110.
T3 sequence (P83110 354-453, limits assumed, looked up): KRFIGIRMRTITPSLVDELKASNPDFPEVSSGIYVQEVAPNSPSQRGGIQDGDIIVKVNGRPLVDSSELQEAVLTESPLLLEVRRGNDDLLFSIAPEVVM

The next experiment deals with T4, APBA1_1, Q02410.
T4 sequence (Q02410 651-752, limits assumed, looked up): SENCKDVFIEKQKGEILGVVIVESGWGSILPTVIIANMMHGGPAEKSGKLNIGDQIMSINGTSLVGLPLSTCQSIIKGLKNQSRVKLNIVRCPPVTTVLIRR

The target of a further experiment is T5, SNTA1, Q13424.
T5 sequence (Q13424 82-180, limits assumed, looked up): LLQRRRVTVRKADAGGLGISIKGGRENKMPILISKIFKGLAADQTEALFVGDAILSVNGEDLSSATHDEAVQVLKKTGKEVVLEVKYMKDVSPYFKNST

Another experiment deals with T6, CARD11, Q9BXL7.
T6 sequence (Q9BXL7 662-765, limits assumed, looked up): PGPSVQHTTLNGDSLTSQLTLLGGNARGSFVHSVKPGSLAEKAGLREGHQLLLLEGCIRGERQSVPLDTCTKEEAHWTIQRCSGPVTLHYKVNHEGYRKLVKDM

In another experiment the target is T7, DFNB31_3, Q9P202.
T7 sequence (Q9P202 811-907, limits assumed, looked up): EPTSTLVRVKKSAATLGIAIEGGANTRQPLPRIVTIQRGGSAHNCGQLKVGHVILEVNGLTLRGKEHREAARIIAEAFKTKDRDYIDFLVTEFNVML

In the next experiment the target is T8, PDZD7_3, Q9H5P4.
T8 sequence (Q9H5P4 857-944, limits assumed, looked up): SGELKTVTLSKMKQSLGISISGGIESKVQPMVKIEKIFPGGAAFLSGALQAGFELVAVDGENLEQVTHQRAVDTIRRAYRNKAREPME

A further experiment concerns the target T9, LIN7A, O14910.
T9 sequence (O14910 103-200, limits assumed, looked up): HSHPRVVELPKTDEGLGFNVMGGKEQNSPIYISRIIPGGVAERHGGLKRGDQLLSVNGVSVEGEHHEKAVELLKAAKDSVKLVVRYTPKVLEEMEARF

The next experiment has as its target T10, DVL3, Q92997.
T10 sequence (Q92997 244-331, limits assumed, looked up): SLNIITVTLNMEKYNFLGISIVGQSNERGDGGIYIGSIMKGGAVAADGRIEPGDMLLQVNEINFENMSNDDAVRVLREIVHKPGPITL

The target of a further experiment is T11, TIAM2, Q8IVF5.
T11 sequence (Q8IVF5 885-986, limits assumed, looked up): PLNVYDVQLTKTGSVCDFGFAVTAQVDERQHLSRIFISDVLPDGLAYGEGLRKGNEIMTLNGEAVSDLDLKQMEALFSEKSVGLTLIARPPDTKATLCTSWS

The target of the next experiment is T12, GRIP1_4, Q9Y3R0.
T12 sequence (Q9Y3R0 467-571, limits assumed, looked up): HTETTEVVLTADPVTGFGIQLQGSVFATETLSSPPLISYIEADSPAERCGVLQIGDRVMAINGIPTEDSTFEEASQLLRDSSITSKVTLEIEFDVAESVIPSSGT

For another experiment, the target named is T13, LIN7B, Q9HAP6.
T13 sequence (Q9HAP6 88-185, limits assumed, looked up): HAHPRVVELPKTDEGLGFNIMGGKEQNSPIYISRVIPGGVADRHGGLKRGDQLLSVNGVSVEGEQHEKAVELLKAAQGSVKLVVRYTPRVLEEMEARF

The target of another experiment is T14, PTPN13_1, Q12923.
T14 sequence (Q12923 1088-1188, limits assumed, looked up): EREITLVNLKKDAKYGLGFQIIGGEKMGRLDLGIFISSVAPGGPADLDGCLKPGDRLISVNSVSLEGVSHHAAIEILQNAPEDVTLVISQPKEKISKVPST

Sequence of FRMPD3, Q5JV73 (Q5JV73 12-100): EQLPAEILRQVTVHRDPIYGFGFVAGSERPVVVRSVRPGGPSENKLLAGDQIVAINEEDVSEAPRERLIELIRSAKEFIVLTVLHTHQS
Sequence of GRIP2_7, Q9C0E4 (Q9C0E4 934-1023): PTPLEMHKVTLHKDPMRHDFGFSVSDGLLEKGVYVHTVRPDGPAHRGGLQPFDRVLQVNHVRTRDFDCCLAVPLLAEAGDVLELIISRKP
Sequence of GRASP, Q7Z6J2 (Q7Z6J2 96-193): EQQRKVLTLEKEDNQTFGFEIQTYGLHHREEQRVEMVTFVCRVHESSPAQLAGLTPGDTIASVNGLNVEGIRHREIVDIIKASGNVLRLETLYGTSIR
Sequence of DLG1_2, Q12959 (Q12959 314-412): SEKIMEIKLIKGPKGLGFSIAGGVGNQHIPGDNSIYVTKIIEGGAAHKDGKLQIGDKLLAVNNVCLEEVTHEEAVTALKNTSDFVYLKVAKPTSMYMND
Sequence of PDLIM1, O00151 (O00151 1-87): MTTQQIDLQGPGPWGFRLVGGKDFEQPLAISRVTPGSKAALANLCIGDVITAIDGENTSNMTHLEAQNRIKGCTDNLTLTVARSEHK
Sequence of SCRIB_1, Q14160 (Q14160 718-814): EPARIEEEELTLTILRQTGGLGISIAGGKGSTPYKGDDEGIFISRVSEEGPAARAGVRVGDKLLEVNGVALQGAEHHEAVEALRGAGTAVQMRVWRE
Sequence of DLG4_2, P78352 (P78352 155-259): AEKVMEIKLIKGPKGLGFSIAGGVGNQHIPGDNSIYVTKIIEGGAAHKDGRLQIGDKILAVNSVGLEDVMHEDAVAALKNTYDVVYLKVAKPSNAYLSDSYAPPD
Sequence of MAGI2_2, Q86UL8 (Q86UL8 410-522): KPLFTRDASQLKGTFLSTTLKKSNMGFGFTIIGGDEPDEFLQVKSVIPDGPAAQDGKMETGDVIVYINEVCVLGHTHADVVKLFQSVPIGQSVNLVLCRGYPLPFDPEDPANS
Sequence of PARD3_3, Q8TEW0 (Q8TEW0 582-685): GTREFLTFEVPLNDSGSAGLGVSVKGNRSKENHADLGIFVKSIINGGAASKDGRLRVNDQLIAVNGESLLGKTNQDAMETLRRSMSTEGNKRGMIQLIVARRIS
Sequence of LDB3, O75112 (O75112 1-94): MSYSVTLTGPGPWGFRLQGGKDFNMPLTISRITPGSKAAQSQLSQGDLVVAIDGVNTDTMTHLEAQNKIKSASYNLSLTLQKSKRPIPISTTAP

For the molecule HLRQQGSVEV [EPHB6, O15197], the pKd entry is “below the threshold” with GRIP2_7, Q9C0E4; “below the threshold” with DFNB31_1, Q9P202; “below the threshold” in the experiment with MAGI2_2, Q86UL8; 3.72 with DLG4_2, P78352; “below the threshold” in the experiment with FRMPD3, Q5JV73; “below the threshold” with GRASP, Q7Z6J2. In addition, the pKd result with DFNB31_2, Q9P202 is “below the threshold”; with HTRA3, P83110, 3.81; with APBA1_1, Q02410, “below the threshold”; in the experiment with SNTA1, Q13424 it was “below the threshold”; with CARD11, Q9BXL7, “below the threshold”; with DFNB31_3, Q9P202, “below the threshold”. For the same molecule, the pKd entry with PDZD7_3, Q9H5P4 is “below the threshold”; in the experiment with LDB3, O75112, “below the threshold”; with LIN7A, O14910 it was “below the threshold”; in the experiment with DVL3, Q92997, “below the threshold”; with TIAM2, Q8IVF5 it was “below the threshold”; with GRIP1_4, Q9Y3R0, “below the threshold”. The pKd with DLG1_2, Q12959 is 3.52; with LIN7B, Q9HAP6, “below the threshold”; with SCRIB_1, Q14160 it was “below the threshold”; in the experiment with PDLIM1, O00151 it was “below the threshold”; in the experiment with PARD3_3, Q8TEW0, “below the threshold”; with PTPN13_1, Q12923, “below the threshold”.

Turning to TGLWKSETTV [ADGRA2, Q96PE1], the pKd entry with GRIP2_7, Q9C0E4 is “below the threshold”; with DFNB31_1, Q9P202 it was 3.64; with MAGI2_2, Q86UL8 it was 5.37; in the experiment with DLG4_2, P78352 it was 5.22; in the experiment with FRMPD3, Q5JV73, “below the threshold”; with GRASP, Q7Z6J2, 3.72. Besides, the pKd entry in the experiment with DFNB31_2, Q9P202 is “below the threshold”; in the experiment with HTRA3, P83110, “below the threshold”; with APBA1_1, Q02410 it was “below the threshold”; in the experiment with SNTA1, Q13424, 4.41; in the experiment with CARD11, Q9BXL7, “below the threshold”; in the experiment with DFNB31_3, Q9P202 it was 3.88. For the same molecule, the pKd in the experiment with PDZD7_3, Q9H5P4 was 4.65; with LDB3, O75112, “below the threshold”; with LIN7A, O14910 it was 3.93; with DVL3, Q92997, “below the threshold”; with TIAM2, Q8IVF5, “below the threshold”; with GRIP1_4, Q9Y3R0, “below the threshold”. For the same molecule, the pKd was 5.26 with DLG1_2, Q12959; 3.51 in the experiment with LIN7B, Q9HAP6; 4.34 with SCRIB_1, Q14160; “below the threshold” with PDLIM1, O00151; “below the threshold” with PARD3_3, Q8TEW0; “below the threshold” in the experiment with PTPN13_1, Q12923.

As for NLQEHSTTSV [RSBN1, Q5VWQ0], the pKd entry was “below the threshold” with GRIP2_7, Q9C0E4; 3.72 with DFNB31_1, Q9P202; 3.89 with MAGI2_2, Q86UL8; 3.88 with DLG4_2, P78352; “below the threshold” with FRMPD3, Q5JV73; 4.51 with GRASP, Q7Z6J2. Further, the negative-log Kd (pKd) result with DFNB31_2, Q9P202 was “below the threshold”; with HTRA3, P83110, “below the threshold”; in the experiment with APBA1_1, Q02410, “below the threshold”; with SNTA1, Q13424, “below the threshold”; with CARD11, Q9BXL7, “below the threshold”; with DFNB31_3, Q9P202, “below the threshold”. Also, the pKd with PDZD7_3, Q9H5P4 is 4; with LDB3, O75112, “below the threshold”; in the experiment with LIN7A, O14910 it was “below the threshold”; with DVL3, Q92997, “below the threshold”; with TIAM2, Q8IVF5, “below the threshold”; with GRIP1_4, Q9Y3R0 it was “below the threshold”. For the same molecule, the pKd with DLG1_2, Q12959 is 3.99; with LIN7B, Q9HAP6, “below the threshold”; with SCRIB_1, Q14160, 3.58; with PDLIM1, O00151 it was “below the threshold”; with PARD3_3, Q8TEW0, “below the threshold”; in the experiment with PTPN13_1, Q12923 it was “below the threshold”.

Take IPGKEFDTPL [PLCB1, Q9NQ66]: the pKd entry is “below the threshold” in the experiment with GRIP2_7, Q9C0E4; 4.03 with DFNB31_1, Q9P202; “below the threshold” in the experiment with MAGI2_2, Q86UL8; “below the threshold” with DLG4_2, P78352; 3.55 with FRMPD3, Q5JV73; “below the threshold” with GRASP, Q7Z6J2. The pKd result with DFNB31_2, Q9P202 was “below the threshold”; with HTRA3, P83110, “below the threshold”; with APBA1_1, Q02410, “below the threshold”; with SNTA1, Q13424 it was 3.51; with CARD11, Q9BXL7, “below the threshold”; in the experiment with DFNB31_3, Q9P202, “below the threshold”. The pKd with PDZD7_3, Q9H5P4 is 3.8; with LDB3, O75112 it was “below the threshold”; in the experiment with LIN7A, O14910, “below the threshold”; with DVL3, Q92997 it was “below the threshold”; with TIAM2, Q8IVF5 it was “below the threshold”; in the experiment with GRIP1_4, Q9Y3R0, “below the threshold”. Moreover, the pKd in the experiment with DLG1_2, Q12959 is 3.57; in the experiment with LIN7B, Q9HAP6, “below the threshold”; in the experiment with SCRIB_1, Q14160, 3.93; with PDLIM1, O00151 it was “below the threshold”; with PARD3_3, Q8TEW0 it was “below the threshold”; with PTPN13_1, Q12923 it was “below the threshold”.
